Test results taken from the RNAGym collection of RNA variant scans (doi:10.7554/elife.90254).

B1: OR4K15 (parent)
chain: GUUAACGGUCAUAGGCCAUGGAAACUAGGAGCACCAUUUCGCUGCCAGUGAAGAAAUGAACAAAGAAAAUCUGGGCCAGGCAGGCAUCAAAAGAAAUAGUCUUGCGCUCAACCAGAAAGUCUGUAAUCAUUUUAAGGGUA

Variants of: B1
Assay: self-cleavage, relative activity (ratio to wild type); higher = more cleavage; in vitro, sequencing; the parent is a self-cleaving ribozyme

Row | Variant | self-cleavage
1 | A51G U100G | 1.63
2 | U103A A118C | 0.53
3 | U57A U130C | 0.81
4 | A78G G106U | 0.01
5 | A69U U131C | 1.33
6 | A22G A47U | 0.62
7 | A52C A116G | 0.64
8 | A13G A78G | 0.52
9 | U9A A22C | 0.95
10 | A69U | 1.81
11 | U120A U133C | 1.41
12 | C61U G115A | 0.08
13 | A96U C113U | 0.04
14 | U87C A125U | 1.74
15 | A96U U102C | 2.54
16 | C71U A129G | 0.08
17 | A11G A116G | 0.92
18 | A60C A63G | 2.15
19 | A11U A51G | 1.48
20 | A11U G41A | 0.96
21 | A24C U43C | 1.9
22 | G7A U26A | 0.93
23 | U9C A66U | 1.42
24 | A63G U70C | 1.08

Row | Variant | self-cleavage
25 | A63G U70A | 1.47
26 | C71U A91G | 0.41
27 | A33U A82U | 0.23
28 | A5U U39C | 1.1
29 | A62G A126C | 0.62
30 | U70G U127C | 0.57
31 | U12C A63G | 1.43
32 | U19G A78U | 0.89
33 | A116U U122A | 0.25
34 | U3A A23G | 1.17
35 | A11G A111C | 0.04
36 | A54U A60G | 0.97
37 | A86U G123A | 1.59
38 | U12A U70C | 0.41
39 | C81U A82G | 0.14
40 | A27G A66C | 1.24
41 | C32U A89G | 0.89
42 | A24U U131A | 0.43
43 | U39C U127A | 2.26
44 | U49C A92U | 1.42
45 | U127A A129G | 2.49
46 | A33C U39A | 2.06
47 | A60U A118U | 0.99
48 | A51U A94U | 1.26

Row | Variant | self-cleavage
49 | A33G A52G | 0.91
50 | A95G A135G | 2.42
51 | A66U A129U | 0.61
52 | A51U A78C | 0.2
53 | A98G A129U | 0.3
54 | A60G G79C | 0.07
55 | A30G A67C | 1.15
56 | U2G A94G | 0.48
57 | A92G U102C | 1.8
58 | U102G A126G | 0.69
59 | A90G A135U | 0.39
60 | U87C C105U | 0.13
61 | A4G U57C | 0.86
62 | G80U U139A | 0.09
63 | U124A A140G | 0.65
64 | A110G A135U | 0.12
65 | A54U A67G | 0.82
66 | C35U A117G | 1.25
67 | G50C C85U | 1.4
68 | C16G A68G | 0.69
69 | A117G A129U | 1.01
70 | A33U A60U | 1.68
71 | U2C A68G | 1.13
72 | A30G U103C | 1.09

Row | Variant | self-cleavage
73 | U19G A47U | 1.08
74 | U100C U130C | 2.02
75 | U102C A126U | 1.39
76 | A111G C121A | 0.03
77 | U9C C45G | 0.85
78 | U26C A95G | 1.75
79 | A13G A129G | 0.85
80 | A55G U139C | 1.72
81 | G58U A67U | 2.46
82 | A51U A116G | 0.37
83 | U87C U130C | 0.55
84 | A111G U122A | 0.01
85 | C42U A66G | 1.64
86 | A22G G28C | 1.42
87 | A5U U124C | 0.99
88 | A23U A36U | 1.53
89 | A56G A64G | 1.44
90 | U26A A63U | 2.02
91 | U26A A63C | 1.71
92 | U19C C113A | 0
93 | U9C U70A | 0.97
94 | U39C G50U | 1.89
95 | U72A U139C | 0.23
96 | A59G U103C | 0.67

Row | Variant | self-cleavage
97 | A67G C107A | 0.04
98 | C16G A55G | 0.86
99 | A55G A68G | 1.23
100 | U127A U139C | 2.29
101 | G80C U103C | 0.03
102 | U3C U39G | 1.72
103 | G44A A91G | 0.42
104 | A68G A86C | 0.72
105 | U2C U72G | 0.19
106 | U37C A135U | 2.17
107 | A94G A126G | 1.3
108 | U100C A134U | 2.45
109 | G14A A140G | 1.89
110 | G31C U70A | 0.94
111 | A64G A135U | 1.28
112 | A18U U130C | 1.37
113 | A22G A54U | 1.08
114 | U108C A134G | 0.07
115 | G31C A90G | 1.73
116 | U103C A114G | 0.51
117 | A78G C105U | 0.03
118 | A78C A125G | 0.04
119 | A94U G106U | 0.01
120 | A62G C105U | 0.14

Row | Variant | self-cleavage
121 | A89U A126U | 0.65
122 | U38A U103C | 0.64
123 | C76A A111G | 0.02
124 | G21A A126G | 1.09
125 | A125G | 0.56
126 | A23G U26C | 1.42
127 | A18U U87A | 1.04
128 | U3A A126G | 1.73
129 | A23G U97G | 1.16
130 | U108C C113A | 0.01
131 | A55C A82G | 0.53
132 | G7U | 1.23
133 | C17U A129G | 0.43
134 | U19A A51U | 2.15
135 | A92U U131C | 1.36
136 | A30G C61U | 0.84
137 | A11C A13U | 1.09
138 | G75C A140G | 0.15
139 | A82U A89U | 0.32
140 | A22G A118G | 0.99
141 | A30U U87C | 0.96
142 | A36U U120C | 1.34
143 | A86C A94U | 1.15
144 | U102A U108A | 0.02

Row | Variant | self-cleavage
145 | U12A A78G | 0.2
146 | A117G U139A | 1.85
147 | A91G A117G | 1.48
148 | C46A C112U | 0.01
149 | A62G U131C | 1.29
150 | U9G A118G | 0.91
151 | A22G C25A | 0.35
152 | A125G U130C | 0.53
153 | A96U G138U | 1.75
154 | A63G A94U | 0.98
155 | A68G G137C | 1.12
156 | U12C G41A | 1.35
157 | A55G U133C | 1.83
158 | A59G U100A | 0.63
159 | U72C U124G | 0.07
160 | C17U A114G | 0.54
161 | U2A A22U | 0.88
162 | A86U A116G | 0.59
163 | U9C A63G | 1.64
164 | G7U A23C | 1.66
165 | A56C A78U | 0.35
166 | A94U | 1.08
167 | A98G U139G | 0.86
